Experimental data taken from US6432920B1, “Nck SH3 binding peptides” (Cytogen Corporation, priority 1994, dated 2002).
Entries after “also recorded” stand apart in the source; their conditions may differ.

Tests used:
Yes SH3-GST = molecular target: T1, Yes SH3-GST (Homo sapiens, UniProt P07947); test: Biotinylated synthetic peptide binding ELISA to immobilized Yes SH3-GST; conditions: 10 μM biotinylated peptide, FIG. 8
T1 construct: a construct expressing the SH3 domain of Yes was obtained from Dr. Marius Sudol (Rockefeller University); made in house; host or cells: bacteria (pGEX vector)
T1 sequence (P07947 91-152 limits assumed): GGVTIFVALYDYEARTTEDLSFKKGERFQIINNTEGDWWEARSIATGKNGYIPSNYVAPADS
Protocol: (§1) These biotinylated peptides were assayed for direct binding to immobilized Src SH3-GST. […] Furthermore, a strong correlation was observed between the similarity of a given peptide to the preferred core consensus sequence RPLP(P/M)LP (SEQ ID NO:96) and the peptide's affinity for Src SH3-GST.
(§2) The preparation of Src-GST fusion protein was first described by Smith and Johnson, in Gene (1988) 67:31, the disclosure of which is incorporated by reference herein. Briefly, pGEX-derived (Pharmacia, Piscataway, N.J.) constructs expressing GST fusion proteins containing the SH3 domains of Src, Grb2, Crk, Abl, or PLCγ were obtained from Dr. Channing Der (University of North Carolina at Chapel Hill); a construct expressing the SH3 domain of Yes was obtained from Dr. Marius Sudol (Rockefeller University). The use of the pGEX bacterial expression vector for the production of GST-SH3 fusion proteins is well-known to those in the art. See, e.g., Cicchetti, P. et al., in Science (1992) 257:803-806. Briefly, the coding region for a particular SH3 domain can be fused in-frame at the Bam HI site of pGEX-2T. Thus, fusion proteins were prepared as per the manufacturer's instructions, and quantified by Coomassie Blue staining of SDS-polyacrylamide gels. Microtiter wells were coated with 5-20 μg GST-SH3 fusion protein in 100 mM NaHCO3, pH 8.5, blocked with 100 mM NaHCO3 (pH 8.5) 1% BSA, and washed. All washes consisted of five applications of 1XPBS, 0.1% Tween 20, 0.1% BSA (Buffer A). Where appropriate, the amount of protein bound to each well was quantified with an anti-GST antibody-based ELISA (Pharmacia, Piscataway, N.J.), and with a GST-binding phage, isolated during the course of this work.
(§3) Peptides were obtained from Research Genetics (Birmingham, Ala.), Chiron Mimotopes (Victoria, Australia), or synthesized by conventional techniques by Dr. J. Mark Carter of Cytogen Corporation (Princeton, N.J.). Peptide purity was assessed by HPLC and/or mass spectrometry. Biotinylated peptides were synthesized with either a KSGSG (SEQ ID NO:103) or a GSGS (SEQ ID NO:104) peptide linker (a spacer) between the biotin and the N-terminus of the peptide. Binding experiments were performed as above, excepting the use of 10 μM peptide instead of phage. Bound biotinylated peptide was detected with streptavidin conjugated to alkaline phosphatase (Sigma Chemical Co., St. Louis, Mo.). After one hour incubation period at room temperature, the wells were washed, and a solution of 3 mM p-nitrophenyl-phosphate (US Biochemicals, Cleveland, Ohio) in 50 mM NaCO3 (pH 9.8), and 50 mM MgCl2 was added and color allowed to develop. Signals were read with an ELISA plate reader (Molecular Devices, Menlo Park, Calif.) at 405 nm wavelength. Binding experiments were performed in triplicate.

Src SH3-GST = molecular target: T2, Src SH3-GST (Homo sapiens, UniProt P12931); test: Biotinylated synthetic peptide binding ELISA to immobilized Src SH3-GST; conditions: for binding to Src SH3 domain (Src SH3-GST): 10 μM biotinylated peptide, streptavidin-alkaline phosphatase ELISA, FIGS. 7 and 8; for relative specificity of binding for SH3 domains of different proteins: Src family versus Grb2, Crk, Abl, PLCγ SH3 domains, FIG. 8
T2 construct: Bacterially expressed Src SH3 glutathione-S-transferase (Src-GST) fusion protein was purified from bacterial lysates; made in house; host or cells: bacteria (pGEX vector)
Protocol: as §1, §2
Bacterially expressed Src SH3 glutathione-S-transferase (Src-GST) fusion protein was purified from bacterial lysates using glutathione agarose 4B (Pharmacia), according to the manufacturer's instructions. Bound Src-GST fusion protein was eluted from the glutathione agarose with 10 mM glutathione in PBS. Microtiter wells were then coated with Src-GST fusion protein (1-10 μg/well, in 50 mM NaHCO3, pH 8.5) overnight at 4° C. To block non-specific binding of phage, 100 μL 1% BSA in 100 mM NaHCO3, pH 8.5, was added to each well and allowed to incubate at room temperature for 1 hour. The wells were then washed five times with 200 μL PBS, 0.1% Tween™ 20, 0.1% BSA (Buffer A).
as §3

[1] = molecular target: Src and PI-3′ Kinase SH3 domains; conditions: Yu et al., biased synthetic peptide library; read-out: binding affinity; cited from earlier work
Grb2-GST = molecular target: T3, Grb2-GST (Homo sapiens, UniProt P62993); test: Biotinylated synthetic peptide binding ELISA to immobilized Grb2-GST; conditions: 10 μM biotinylated peptide, FIG. 8
T3 construct: made in house; host or cells: bacteria (pGEX vector)
T3 sequence (P62993 whole entry): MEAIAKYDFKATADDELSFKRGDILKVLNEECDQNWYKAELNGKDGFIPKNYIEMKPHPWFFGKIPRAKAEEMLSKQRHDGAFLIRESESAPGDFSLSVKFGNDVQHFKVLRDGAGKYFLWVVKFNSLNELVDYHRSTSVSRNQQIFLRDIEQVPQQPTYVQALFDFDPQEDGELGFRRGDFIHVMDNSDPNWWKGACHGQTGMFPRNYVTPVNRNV
Protocol: (§4) As mentioned above, the relative specificity of binding was explored. Thus, the relative binding of Src SH3-selected peptides to equal amounts of GST fusions to SH3 domains from different proteins was determined (FIG. 8). While all of the library-derived peptides bound the Src and Yes SH3 domains almost equally well, none of the peptides (with the exception of peptide T12.SRC3.1, the most divergent peptide tested) bound the SH3 domains of Grb2, Crk, Abl or PLCγ1 appreciably.
as §2, with “Briefly, the coding region for a particular SH3 domain can be fused in-frame at the Bam HI site of pGEX-2T.” left out, “Microtiter wells were coated with 5-20 μg GST-SH3 fusion protein in 100 mM NaHCO3, pH 8.5, blocked with 100 mM NaHCO3 (pH 8.5) 1% BSA, and washed. All washes consisted of five applications of 1XPBS, 0.1% Tween 20, 0.1% BSA (Buffer A).” left out
(§5) Peptides were obtained from Research Genetics (Birmingham, Ala.), Chiron Mimotopes (Victoria, Australia), or synthesized by conventional techniques by Dr. J. Mark Carter of Cytogen Corporation (Princeton, N.J.). Peptide purity was assessed by HPLC and/or mass spectrometry. […] Bound biotinylated peptide was detected with streptavidin conjugated to alkaline phosphatase (Sigma Chemical Co., St. Louis, Mo.). […] Signals were read with an ELISA plate reader (Molecular Devices, Menlo Park, Calif.) at 405 nm wavelength. […]

PLCγ1 SH2SH3-GST = test: Biotinylated synthetic peptide binding ELISA to immobilized PLCγ1 SH2SH3-GST; conditions: 10 μM biotinylated peptide, FIG. 8
Protocol: as §4
as §2, with “Briefly, the coding region for a particular SH3 domain can be fused in-frame at the Bam HI site of pGEX-2T.” left out, “Microtiter wells were coated with 5-20 μg GST-SH3 fusion protein in 100 mM NaHCO3, pH 8.5, blocked with 100 mM NaHCO3 (pH 8.5) 1% BSA, and washed. All washes consisted of five applications of 1XPBS, 0.1% Tween 20, 0.1% BSA (Buffer A).” left out
as §5

Xenopus laevis oocytes = test: Progesterone-induced X. laevis oocyte maturation (germinal vesicle breakdown); assay type: cell-based; conditions: oocytes injected with 40 nL of 100 μM test peptide, 2 μg/mL progesterone; relative to water
Protocol: Briefly, Stage VI oocytes were prepared and injected as previously described (see, Kay, B. K., in Methods in Cell Biol. (1991) 36:663-669). Oocytes were injected with 40 nL of 100 μM test peptide or water. After injection, the oocytes were placed in 2 μg/mL progesterone (Sigma, St. Louis, MO) and scored hourly for germinal vesicle breakdown (GVBD). LAPPKPPLPEGEV is SEQ ID NO:70.
Moreover, Xenopus laevis oocytes injected with mRNA encoding constitutively active Src undergo progesterone-induced maturation at an accelerated rate relative to oocytes injected with water or c-Src mRNA. Unger, T. F. and Steele, R. E. in Mol. Cell. Biol. (1992) 12:5485-5498. To explore the ability of the library-derived Src SH3-binding peptides to exert a biochemical effect in vivo, the influence of the peptides on the maturation of Xenopus laevis oocytes was examined. […] The magnitude of this effect is roughly equivalent to that seen with injection of mRNA encoding constituitively active Src. See, e.g., FIG. 3B in Unger, T. F. and Steele, R. E., supra. […]
Segments of adult ovary were removed surgically and incubated in 0.1% collagenase type D (Boehringer Mannheim, Indianapolis, Ind.) in Ca^2+-free OR2 (82.5 mM NaCl, 2.5 mM KCl, 1.0 mM MgCl2, 1.0 mM Na2HPO4, 5.0 mM HEPES, and 3.8 mM NaOH, pH 7.6). […] Oocytes were scored at hourly time points for germinal vesicle breakdown (GVBD).

[2] = molecular target: cellular Src of Xenopus laevis oocytes (Xenopus laevis); test: cell-based or functional assay

Molecule	binding to Yes SH3 domain (Yes SH3-GST) (Yes SH3-GST)	binding to Src SH3 domain (Src SH3-GST) (Src SH3-GST)	relative specificity of binding for SH3 domains of different proteins (Src SH3-GST)	also measured
RSTPRPLPMLPTTR [synthetic peptide of phage clone R8C.YES3.5]	much more avidly	much more avidly; also recorded: strong specific binding affinity	highly specific	
RKLPPRPRR [“composite” peptide of Yu et al]				Kd [1]: 7.6 µM
RSTPRPLPPLPTTR [representative consensus motif with flanking residues of R8C.YES3.5]	much more avidly	much more avidly; also recorded: strong specific binding affinity	highly specific	
GPHRRLPPTPATR [synthetic peptide of phage clone T12.SRC3.3]	much more avidly	much more avidly; also recorded: avid binding affinity	specific to src family SH3 domains	binding to Grb2 SH3 domain (Grb2-GST) (Grb2-GST): little affinity; binding to PLCγ SH3 domain (PLCγ1 SH2SH3-GST) (PLCγ1 SH2SH3-GST): little affinity
ANPSPATRPLPTR [synthetic peptide of phage clone T12.SRC3.2]		comparable to the core consensus sequence	Src family specificity	binding to Src SH3 domain (Src SH3-GST) (Src SH3-GST; listed as APSPATRPLPTR): avid binding affinity
VLKRPLPIPPVTR [synthetic peptide of phage clone T12.SRC3.6]	much more avidly	much more avidly; also recorded: strong binding affinities; also recorded: avid binding affinity	Src preferential	rate of progesterone-induced oocyte maturation (germinal vesicle breakdown) (Xenopus laevis oocytes): faster rate; also recorded: increased rate; binding to Grb2 SH3 domain (Grb2-GST) (Grb2-GST): some binding affinities; binding to PLCγ SH3 domain (PLCγ1 SH2SH3-GST) (PLCγ1 SH2SH3-GST): little binding affinities
RPLPPLP		less effective; also recorded: only weakly		
KISPPTPKPRPPRPLPV [reference compound]		much less well		
GTVEPVPPPVPPRRRPESA [reference compound]		much less well		
LAPPKPPLPEGEV [proline-rich region of the cytoskeletal protein vinculin, control peptide, reference compound]		much less well		rate of progesterone-induced oocyte maturation (germinal vesicle breakdown) (Xenopus laevis oocytes): not
GILAPPVPPRNTR [synthetic peptide of phage clone T12.SRC3.1]	much more avidly	much more avidly; also recorded: binds generically; also recorded: avid binding affinity	binds generically to a broad range of SH3 domains; also recorded: more generic SH3 domain-binding characteristics	binding to Grb2 SH3 domain (Grb2-GST) (Grb2-GST): binds generically; binding to PLCγ SH3 domain (PLCγ1 SH2SH3-GST) (PLCγ1 SH2SH3-GST): binds generically
VLKRPLPIPPVTR (modifications not checked) […]				rate of progesterone-induced maturation of Xenopus laevis oocytes (germinal vesicle breakdown) [2]: 1 h
